Binding result, IC50 and EC50 data for 4 molecules are collected here from patent publication US20240002497A1 (Merck Sharp & Dohme, published 2024).

The target of one test is T1, huNav157chim4 + β1-β2-β3 (human, UniProt Q15858 44-1988; A5A6L6 19-218; O60939 30-215; Q2KI11 23-215).
T1 construct: DII, DIII, DIV from Nav1.7α, DI from Nav1.5α; also called huNav157 chimera 4
As to the kind of experiment: FACS, transiently transfected HEK293T cells. As for the experimental part: (§1) Binding of the ISVDs to cell-expressed Nav1.7α was detected via murine anti-Flag (Sigma, catalog #F1804). Briefly, cells were resuspended in FACS buffer (PBS, 10% FBS, NaN₃) and transferred to a 96-well V-bottom plate at 1×10^5 cells/well. Purified FLAG3-tagged ISVD was diluted in FACS buffer and added to the cells for 30 minutes at 4° C. […] Prior to the read-out, the samples were resuspended in 1 μg/mL propidium iodide (Sigma, catalog #P4170) to exclude dead cells. Between each step, the cells were centrifuged for 5 minutes at 200 grams and washed with 100 μL/well FACS buffer.
(§2) FACS binding studies (as described above) were performed on HEK293T cells transiently transfected with expression vectors encoding a huNav1.7α or rhNav1.7α fused at the C-terminus via a P2A viral peptide linker to a single polypeptide encoding sodium channel beta subunits Navβ1, Navβ2, and Navβ3 in tandem (β1-β2-β3; SEQ ID NO:21). Similarly, HEK293T cells transiently transfected with expression vectors encoding chimeric variants of huNav1.7α in which individual domains are replaced by their huNav1.5α counterparts (chimeras 1 to 4 in FIG. 16) or with chimeric variants of huNav1.5 in which individual domains are replaced by their huNav1.7α counterparts (chimeras 5 to 8 in FIG. 16) fused at the C-terminus via a P2A viral peptide linker to β1-β2-β3 as above. See Table 7 for description of the expression vectors encoding the chimeras, Table 21 and FIG. 16).
For orientation: Flow cytometry measures light scatter and fluorescence of single cells or particles in a stream.

The target of the next test is T2, huNav157chim5 + β1-β2-β3 (human).
T2 construct: DI, DII, DIII from Nav1.5α, DIV from Nav1.7α; also called huNav157 chimera 5
The experiment in a line: FACS, transiently transfected HEK293T cells. How it is done: as §1, §2

The next test addresses T3, huNav157chim6 + β1-β2-β3 (human).
T3 construct: DI, DII, DIV from Nav1.5α, DIII from Nav1.7α; also called huNav157 chimera 6
The experiment in a line: FACS, transiently transfected HEK293T cells. As for the experimental part: as §1, §2

The target of the next test is T4, huNav157chim7 + β1-β2-β3 (human).
T4 construct: DI, DIII, DIV from Nav1.5α, DII from Nav1.7α; also called huNav157 chimera 7
The experiment in a line: FACS, transiently transfected HEK293T cells. As for the experimental part: as §1, §2

The target of test [1] is T5, huNav157chim12 + β1-β2-β3 (human, UniProt Q15858 1-1988; A5A6L6 19-218; O60939 30-215; Q2KI11 23-215).
T5 construct: DI S5-S6 from Nav1.5α, rest Nav1.7α; also called huNav157 chimera 12
As to the kind of experiment: FACS, transiently transfected HEK293T cells. As for the experimental part:
as §1, §2

For test [2], the target named is T6, huNav1.7α + β1-β2-β3 (human, UniProt Q15858 1-1988; A5A6L6 19-218; O60939 30-215; Q2KI11 23-215).
T6 construct: Cell line (CHO FlpIn, HEK FlpIn, transient HEK293T) is named under assay; also called huNav1.7-beta1-beta2-beta3; human Nav1.7α with Navβ1, Navβ2 and Navβ3
The experiment in a line: competition FACS, HEK FlpIn cells, vs EC30 of CMYC3-F0103265B04. As for the experimental part:
Competition FACS assays were performed with CMYC3-tagged ISVD F0103265B04 or F0103275B05(N93R) affinity maturation variant on a HEK FlpIn huNav1.7α+β1−β2−β3 transgenic cell line. Briefly, cells were resuspended in FACS buffer (PBS, 2% FBS, 0.05% NaN₃) and 1×10⁵ cells/well were transferred to 96-well V-bottom plates. Cells were subsequently resuspended in a 100 μL mixture of purified ISVD (dilution series) and CMYC3-tagged ISVD F0103265B04 (at a concentration equivalent to EC30) followed by incubation for 1.5 hours at 4° C. […] Between each step, the cells were centrifuged for 5 minutes at 200 g and washed with 100 μL/well FACS buffer. Prior to the read-out, the samples were resuspended in 5 nM TOPRO3 (Molecular probes, catalog #T3605) to exclude dead cells. F0103262CO2, F0103262B06, F0103265A11, F0103265B04, F0103275B05, F0103362B08, and F0103387G04 all compete with F0103265B04 for binding to huNav1.7α, in contrast to an irrelevant control ISVD (IRR) (see Table 21 and FIG. 15A, FIG. 15B, FIG. 15C, and FIG. 15D).

Test [3] addresses T6, huNav1.7α + β1-β2-β3. The experiment in a line: binding FACS, CHO FlpIn cells. How it is done:
as §1
(§3) Based on the huNav1.7α model (as described above) the following huNav1.7α-rhNav1.7α polymorphisms can be allocated to the extracellular part of DI: N146S, F276V, R277Q, E281V and V331M. The first of the residues is in DI S1-S2 whereas the latter four residues belong to DI S5-S6. FACS binding studies (as described above) were performed to stable CHO FlpIn cell lines expressing different variants of huNav1.7+β1−β2−β3 each including one of the four possible extracellular huNav1.7α-rhNav1.7α polymorphisms in the DI S5-S6 region: F276V, R277Q, E281V and V331M (Table 23 and FIGS. 22A-22F). Individual polymorphisms were each sufficient to abolish the binding of F0103265B04, F0103362B08, F010301080, and F0103262B06 to huNav1.7α, recapitulating the absence of binding on rhNav1.7α. F0103262CO2, F0103275B05 and F0103387G05 are more subtly affected in terms of EC50 or Bmax by some of the polymorphisms. None of the individual DI S5-S6 polymorphisms by themselves appear to have an impact on the binding of the two rhNav1.7α cross-reactive ISVDs F0103387G04 and F0103464B09. In addition, no effect on binding of the two ISVDs was observed (data not shown) for the three extracellular DIV VSD huNav1.7α-rhNav1.7α polymorphisms Q1530P, H1531Y and E1534D (FIG. 22G).

For another test, the target named is T7, rhNav1.7α + β1-β2-β3 (rhesus monkey).
T7 construct: also called rhNav1.7-beta1-beta2-beta3; rhesus Nav1.7α
As to the kind of experiment: binding FACS, CHO FlpIn cells. As for the experimental part: as §1, §3

Test [4] has as its target T8, huNav1.7α(F276V) + β1-β2-β3 (human, UniProt Q15858 1-1988; A5A6L6 19-218; O60939 30-215; Q2KI11 23-215).
T8 construct: polyprotein as encoded, P2A sites liberate the subunits; the entry already carries F276V; also called huNav1.7(F276V)-beta1-beta2-beta3
The experiment in a line: binding FACS, CHO FlpIn cells. As for the experimental part:
as §1, §3

Test [5] has as its target T9, huNav1.7α(R277Q) + β1-β2-β3 (human).
T9 construct: polyprotein as encoded; the entry already carries R277Q; also called huNav1.7(R277Q)-beta1-beta2-beta3
The experiment in a line: binding FACS, CHO FlpIn cells. As for the experimental part:
as §1, §3

The target of test [6] is T10, huNav1.7α(E281V) + β1-β2-β3 (human).
T10 construct: polyprotein as encoded; the entry already carries E281V; also called huNav1.7(E281V)-beta1-beta2-beta3
As to the kind of experiment: binding FACS, CHO FlpIn cells. How it is done:
as §1, §3

Test [7] concerns the target T11, huNav1.7α(V331M) + β1-β2-β3 (human).
T11 construct: polyprotein as encoded; the entry already carries V331M; also called huNav1.7(V331M)-beta1-beta2-beta3
As to the kind of experiment: binding FACS, CHO FlpIn cells. How it is done: as §1, §3

B1: F0103265A11 (VHH)
VHH: EVQLVESGGGLVQPGGSLRLSCAASGMLFNANTQGWYRQAPGKQRELVAFIFSGGYTNYVDSVKGRFTISRDNAKRTMYLQMNSLKPEDSAIYYCSLSRYLGQGTLVTVSS
notes: entry includes the FLAG-HIS6 tag; also called F0103265A11 (parental)-FLAG-HIS6
For orientation: IC50 means the concentration needed to halve the response being measured. As for B1, the binding result (in the test with huNav157chim4 + β1-β2-β3; with huNav157chim5 + β1-β2-β3; in the test with huNav157chim6 + β1-β2-β3; with huNav157chim7 + β1-β2-β3; in test [1]) was “no binding (tested: 1 µM)” in each case. In the test with huNav1.7α + β1-β2-β3 [2], the half-inhibitory concentration (IC50) was 0.075 µM.

B2: F0103262B06 (VHH)
VHH: EVQLVESGGGLVQPGGSLRLSCAGSTRTFSTYAMGWFRQAPGREREFVAHINFSGSSTRYADSVKGRFTISRDNAKNMGYLQMNSLKPEDTAVYYCAARWVAGPPRYDYEYWGQGTLVTVSS
notes: entry includes the FLAG-HIS6 tag; also called F0103262B06 (parental)-FLAG-HIS6
In general, EC50 refers to the concentration that produces a half-maximal response. B2: the results for the EC50 (with huNav1.7α + β1-β2-β3 [3]; in [7]) were 0.047 µM and 0.063 µM, respectively. Further, the binding result is on record as “no binding” with rhNav1.7α + β1-β2-β3; “no binding” in test [4]; “no binding” in test [5]; “no binding” in [6]; “no binding (tested: 1 µM)” in the test with huNav157chim4 + β1-β2-β3; “no binding (tested: 1 µM)” in the test with huNav157chim5 + β1-β2-β3. Further, the binding result (with huNav157chim6 + β1-β2-β3; with huNav157chim7 + β1-β2-β3; in [1]) was “no binding (tested: 1 µM)” throughout. For the same molecule, the IC50 with huNav1.7α + β1-β2-β3 [2] was found to be 0.049 µM.

B3: F0103265B04 (VHH)
VHH: EVQLVESGGGLVQPGGSLRLSCAAPSFIFSNNYMEWYRQAPGKQRDWVARITGRGNTNYLDSVKGRFTISRDDAKNTVYLEIDSLKPEDTAVYYCSALWYGGRAWGKGTLVTVSS
notes: entry includes the FLAG-HIS6 tag; also called F0103265B04 (parental)-FLAG-HIS6
B3: the 50% effective concentration (EC50) is 0.0092 µM with huNav1.7α + β1-β2-β3 [3], 0.0071 µM in test [5] and 0.0075 µM in test [6]. The binding result in the test with rhNav1.7α + β1-β2-β3 is recorded as “no binding”; in test [4], “no binding”; in test [7], “no binding”; with huNav157chim4 + β1-β2-β3, “no binding (tested: 1 µM)”; with huNav157chim5 + β1-β2-β3, “no binding (tested: 1 µM)”; in the test with huNav157chim6 + β1-β2-β3, “no binding (tested: 1 µM)”. Further, the binding result (with huNav157chim7 + β1-β2-β3; in test [1]) was “no binding (tested: 1 µM)” throughout. For the same molecule, the concentration for half-maximal inhibition (IC50) with huNav1.7α + β1-β2-β3 [2] was determined as 0.018 µM.

B4: F0103262C02 (VHH)
VHH: EVQLVESGGGLVQAGGSLTLSCAASGLPFGLYILGWIRRAPGKERDFVAAISRSGRDTVYANSVKGRFTISRDNAKNMVYLRMDNLRPEDTAAYYCAVDSVPRGTPTITESEYAIWGQGTLVTVSS
notes: entry includes the FLAG-HIS6 tag; also called F0103262C02 (parental)-FLAG-HIS6; F103262CO2
With B4, the EC50 with huNav1.7α + β1-β2-β3 [3] was determined as 0.29 µM; in [4], 0.21 µM; in [5], 0.45 µM; in test [6], 0.24 µM; in [7] it was 0.086 µM. Moreover, the binding result is “no binding” with rhNav1.7α + β1-β2-β3; “no binding (tested: 1 µM)” with huNav157chim4 + β1-β2-β3; “no binding (tested: 1 µM)” with huNav157chim5 + β1-β2-β3; “no binding (tested: 1 µM)” with huNav157chim6 + β1-β2-β3; “no binding (tested: 1 µM)” with huNav157chim7 + β1-β2-β3; “no binding (tested: 1 µM)” in test [1]. Further, the IC50 in the test with huNav1.7α + β1-β2-β3 [2] turned out to be 0.53 µM.
